This is an account of results in publication PMC5686067.

Experiment [1] concerns the target sMepS-6×His-C (soluble MepS without its lipoprotein signal peptide, C-terminal His-tag) (E. coli) (UniProt P0AFV4). The experiment in a line: ITC; iTC200, 20 °C, 20 mM HEPES pH 7.5, 300 mM NaCl, 2 mM 2-mercaptoethanol; 23 µM sMepS or Prc in the cell, 230 µM sNlpI (alone or with equimolar Prc) in the syringe; one binding site model.
Experiment [2] addresses Prc (full-length, C-terminal His-tag) (E. coli) (UniProt P23865).
Experiment [3] concerns the target sNlpI (soluble NlpI without its lipoprotein signal peptide) (E. coli) (UniProt P0AFB1). The experiment is described as follows: AUC; sedimentation velocity, absorbance optics, 20 mM Tris-HCl pH 8.0, 100 mM NaCl, 2 mM DTT, 20 °C, c(s) model in Sedfit.
Experiment [4] has the same target. The experiment is described as follows: SEC-MALS; ENrich SEC 650 column, 20 mM Tris-HCl pH 7.5, 200 mM NaCl, 2 mM DTT, 0.02% NaN3, 240-360 µg protein injected.

sNlpI (soluble NlpI without its lipoprotein signal peptide) (E. coli), sequence (P0AFB1 20-294): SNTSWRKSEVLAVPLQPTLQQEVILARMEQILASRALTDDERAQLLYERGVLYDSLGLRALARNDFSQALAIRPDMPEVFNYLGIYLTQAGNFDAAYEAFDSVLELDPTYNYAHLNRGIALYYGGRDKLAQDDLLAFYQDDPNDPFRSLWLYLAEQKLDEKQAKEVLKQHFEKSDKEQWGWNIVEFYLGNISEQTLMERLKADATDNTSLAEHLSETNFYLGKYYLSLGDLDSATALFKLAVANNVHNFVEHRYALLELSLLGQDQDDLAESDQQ
sMepS-6×His-C (soluble MepS without its lipoprotein signal peptide, C-terminal His-tag) (E. coli), sequence (P0AFV4 28-188 limits assumed): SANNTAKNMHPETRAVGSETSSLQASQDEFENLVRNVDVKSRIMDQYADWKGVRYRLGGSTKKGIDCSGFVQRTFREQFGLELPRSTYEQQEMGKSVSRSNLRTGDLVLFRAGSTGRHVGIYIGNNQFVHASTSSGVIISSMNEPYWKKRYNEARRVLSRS
Prc (full-length, C-terminal His-tag) (E. coli), sequence (P23865 23-682 limits assumed): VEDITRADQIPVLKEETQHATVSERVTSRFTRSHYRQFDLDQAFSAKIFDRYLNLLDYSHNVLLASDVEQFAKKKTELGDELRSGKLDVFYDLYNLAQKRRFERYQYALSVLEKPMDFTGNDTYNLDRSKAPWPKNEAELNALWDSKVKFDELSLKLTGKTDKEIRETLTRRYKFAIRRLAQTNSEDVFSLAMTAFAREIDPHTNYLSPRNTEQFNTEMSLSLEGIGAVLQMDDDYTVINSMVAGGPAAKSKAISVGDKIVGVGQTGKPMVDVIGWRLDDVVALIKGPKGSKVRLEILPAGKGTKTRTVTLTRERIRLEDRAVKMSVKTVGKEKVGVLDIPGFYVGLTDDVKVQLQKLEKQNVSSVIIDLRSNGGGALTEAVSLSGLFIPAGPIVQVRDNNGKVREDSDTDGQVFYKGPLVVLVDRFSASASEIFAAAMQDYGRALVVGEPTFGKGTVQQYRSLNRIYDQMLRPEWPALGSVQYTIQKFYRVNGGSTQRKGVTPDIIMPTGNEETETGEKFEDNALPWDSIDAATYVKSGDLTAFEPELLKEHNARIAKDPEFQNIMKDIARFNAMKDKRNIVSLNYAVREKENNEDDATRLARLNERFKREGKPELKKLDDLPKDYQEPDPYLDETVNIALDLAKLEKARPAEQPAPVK

Substance “sNlpI-Prc complex (from UniProt P0AFB1 20-294; P23865 23-682)” had a Kd in experiment [1] of 2090 nM.

With “sNlpI-QM (D113A/E117A/D120/E124A quadruple mutant) (from UniProt P0AFB1 20-294) (natural protein)”, the specific degradation activity of Prc against MepS with sNlpI-QM (nmol min^−1 per mg) in experiment [2] is 0.98.

As for “Prc (full-length, C-terminal His-tag) (from UniProt P23865 23-682) (enzyme)”, the stoichiometry N (Prc per sNlpI (printed 2:2)) in experiment [3] and in experiment [4] was 1 each time.
